Test results published in IntAct's records for PubMed 30623132.

B1: Myosin-7 (Homo sapiens), P12883 (parent)
chain: MGDSEMAVFGAAAPYLRKSEKERLEAQTRPFDLKKDVFVPDDKQEFVKAKIVSREGGKVTAETEYGKTVTVKEDQVMQQNPPKFDKIEDMAMLTFLHEPAVLYNLKDRYGSWMIYTYSGLFCVTVNPYKWLPVYTPEVVAAYRGKKRSEAPPHIFSISDNAYQYMLTDRENQSILITGESGAGKTVNTKRVIQYFAVIAAIGDRSKKDQSPGKGTLEDQIIQANPALEAFGNAKTVRNDNSSRFGKFIRIHFGATGKLASADIETYLLEKSRVIFQLKAERDYHIFYQILSNKKPELLDMLLITNNPYDYAFISQGETTVASIDDAEELMATDNAFDVLGFTSEEKNSMYKLTGAIMHFGNMKFKLKQREEQAEPDGTEEADKSAYLMGLNSADLLKGLCHPRVKVGNEYVTKGQNVQQVIYATGALAKAVYERMFNWMVTRINATLETKQPRQYFIGVLDIAGFEIFDFNSFEQLCINFTNEKLQQFFNHHMFVLEQEEYKKEGIEWTFIDFGMDLQACIDLIEKPMGIMSILEEECMFPKATDMTFKAKLFDNHLGKSANFQKPRNIKGKPEAHFSLIHYAGIVDYNIIGWLQKNKDPLNETVVGLYQKSSLKLLSTLFANYAGADAPIEKGKGKAKKGSSFQTVSALHRENLNKLMTNLRSTHPHFVRCIIPNETKSPGVMDNPLVMHQLRCNGVLEGIRICRKGFPNRILYGDFRQRYRILNPAAIPEGQFIDSRKGAEKLLSSLDIDHNQYKFGHTKVFFKAGLLGLLEEMRDERLSRIITRIQAQSRGVLARMEYKKLLERRDSLLVIQWNIRAFMGVKNWPWMKLYFKIKPLLKSAEREKEMASMKEEFTRLKEALEKSEARRKELEEKMVSLLQEKNDLQLQVQAEQDNLADAEERCDQLIKNKIQLEAKVKEMNERLEDEEEMNAELTAKKRKLEDECSELKRDIDDLELTLAKVEKEKHATENKVKNLTEEMAGLDEIIAKLTKEKKALQEAHQQALDDLQAEEDKVNTLTKAKVKLEQQVDDLEGSLEQEKKVRMDLERAKRKLEGDLKLTQESIMDLENDKQQLDERLKKKDFELNALNARIEDEQALGSQLQKKLKELQARIEELEEELEAERTARAKVEKLRSDLSRELEEISERLEEAGGATSVQIEMNKKREAEFQKMRRDLEEATLQHEATAAALRKKHADSVAELGEQIDNLQRVKQKLEKEKSEFKLELDDVTSNMEQIIKAKANLEKMCRTLEDQMNEHRSKAEETQRSVNDLTSQRAKLQTENGELSRQLDEKEALISQLTRGKLTYTQQLEDLKRQLEEEVKAKNALAHALQSARHDCDLLREQYEEETEAKAELQRVLSKANSEVAQWRTKYETDAIQRTEELEEAKKKLAQRLQEAEEAVEAVNAKCSSLEKTKHRLQNEIEDLMVDVERSNAAAAALDKKQRNFDKILAEWKQKYEESQSELESSQKEARSLSTELFKLKNAYEESLEHLETFKRENKNLQEEISDLTEQLGSSGKTIHELEKVRKQLEAEKMELQSALEEAEASLEHEEGKILRAQLEFNQIKAEIERKLAEKDEEMEQAKRNHLRVVDSLQTSLDAETRSRNEALRVKKKMEGDLNEMEIQLSHANRMAAEAQKQVKSLQSLLKDTQIQLDDAVRANDDLKENIAIVERRNNLLQAELEELRAVVEQTERSRKLAEQELIETSERVQLLHSQNTSLINQKKKMDADLSQLQTEVEEAVQECRNAEEKAKKAITDAAMMAEELKKEQDTSAHLERMKKNMEQTIKDLQHRLDEAEQIALKGGKKQLQKLEARVRELENELEAEQKRNAESVKGMRKSERRIKELTYQTEEDRKNLLRLQDLVDKLQLKVKAYKRQAEEAEEQANTNLSKFRKVQHELDEAEERADIAESQVNKLRAKSRDIGTKGLNEE

Variants of: B1
Settings: with mypc3_human MYBPC3, Q14896
Chain of mypc3_human MYBPC3, Q14896 (Q14896 whole entry): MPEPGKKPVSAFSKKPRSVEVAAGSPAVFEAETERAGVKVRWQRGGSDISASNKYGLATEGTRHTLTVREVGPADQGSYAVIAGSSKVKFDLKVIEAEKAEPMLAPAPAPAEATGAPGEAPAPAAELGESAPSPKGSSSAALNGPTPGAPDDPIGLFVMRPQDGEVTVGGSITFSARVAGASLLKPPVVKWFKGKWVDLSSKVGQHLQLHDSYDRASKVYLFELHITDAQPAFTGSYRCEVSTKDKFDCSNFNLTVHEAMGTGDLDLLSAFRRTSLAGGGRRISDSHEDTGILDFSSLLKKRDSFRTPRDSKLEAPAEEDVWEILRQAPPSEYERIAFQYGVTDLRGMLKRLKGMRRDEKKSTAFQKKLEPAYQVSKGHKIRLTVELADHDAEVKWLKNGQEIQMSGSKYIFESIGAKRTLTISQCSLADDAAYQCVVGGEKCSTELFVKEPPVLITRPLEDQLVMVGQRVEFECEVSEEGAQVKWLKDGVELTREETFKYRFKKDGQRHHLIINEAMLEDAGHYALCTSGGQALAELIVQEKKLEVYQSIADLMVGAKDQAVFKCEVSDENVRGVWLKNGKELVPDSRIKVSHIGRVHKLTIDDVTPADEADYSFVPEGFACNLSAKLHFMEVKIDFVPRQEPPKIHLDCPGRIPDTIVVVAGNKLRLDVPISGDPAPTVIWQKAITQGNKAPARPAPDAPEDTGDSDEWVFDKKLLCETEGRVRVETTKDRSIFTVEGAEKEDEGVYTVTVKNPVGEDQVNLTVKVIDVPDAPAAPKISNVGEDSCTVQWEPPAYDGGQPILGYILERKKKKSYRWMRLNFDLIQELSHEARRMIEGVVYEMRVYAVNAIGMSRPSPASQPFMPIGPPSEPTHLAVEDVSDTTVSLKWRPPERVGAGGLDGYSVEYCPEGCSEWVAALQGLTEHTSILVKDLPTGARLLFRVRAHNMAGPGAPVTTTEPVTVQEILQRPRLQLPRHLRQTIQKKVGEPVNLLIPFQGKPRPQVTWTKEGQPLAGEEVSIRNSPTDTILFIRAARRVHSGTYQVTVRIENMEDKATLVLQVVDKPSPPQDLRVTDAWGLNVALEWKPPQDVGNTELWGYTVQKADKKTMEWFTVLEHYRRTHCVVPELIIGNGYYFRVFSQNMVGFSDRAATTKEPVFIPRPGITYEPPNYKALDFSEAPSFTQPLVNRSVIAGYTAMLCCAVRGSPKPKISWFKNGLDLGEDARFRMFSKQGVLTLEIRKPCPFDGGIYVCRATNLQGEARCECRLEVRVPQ

Variant | effect of a mutation on the interaction
E848G | disrupting interaction strength
